Measured values as given in patent US20100021390A1, “Fluorescent Analogs Of The Islet Amyloid Polypeptide” (The Research Foundation of State University of New York, priority 2008, published 2010).

Legend:
[1] = Control fluorescence of small p-cyanophenylalanine peptide in solvents and buffer; type: physicochemical
Description: In vitro assays of amyloid formation often involve solubilizing the peptide of interest in a fluorinated alcohol, typically hexafluoroisopropanol (HFIP). The fibrillization reaction is initiated by diluting the stock solution into aqueous buffer. […] A small, soluble p-cyanophenylalanine containing peptide (Gly-PheC≡N-Ala-Ala) was synthesized for the control studies. […] The fluorescence intensity was reduced by approximately 30%.

[2] = Thioflavin-T fluorescence kinetic assay of amyloid (fibril) formation by the peptides; type: physicochemical; settings: 32 μM peptide, 20 mM Tris-HCl, 2% HFIP
Description: (§1) Wild-type IAPP, IAPP-Y37FC≡N and a G-FCN-A-A tetrapeptide were synthesized and the disulfide bond in IAPP was formed using dimethyl sulfoxide (DMSO) based oxidation as described in Abedini et al., Analytical Biochemistry 351, 181-186 (2006) incorporated herein by reference. The synthesis of peptides is well known in the art. Synthesizers such as the Applied Biosystems 433A are commercially available with ample instructions for use and are generally accessible to practitioners in the art. Fmoc-4-cyanoPhe was obtained from NovaBiochem. Peptides were purified via reverse phase HPLC and the identities confirmed by MALDI mass spectroscopy. Thioflavin-T fluorescence experiments were performed with a Jobin Yvon Horiba fluorescence spectrophotometer or with an Applied Phototechnology fluorescence spectrophotometer. P-cyanoPhe fluorescence was excited at 240 nm and detected at 296 nm with instrument slit widths of 10 nm on an Applied Photon Technologies fluorimeter. […]
(§2) Fibrillization reactions were initiated by diluting the stock 50-fold into buffered (20 mM Tris-HCl, pH 7.4) aqueous solution. […] The spectrum is the average of three repeats in a 0.1 cm quartz cuvette and recorded over a range of 190-250 nm, at 1 nm intervals, with an averaging time of three seconds per scan. […]

hIAPP-Y37FC≡N = biological target: T1, hIAPP-Y37FC≡N (Homo sapiens, UniProt P10997); assay: p-Cyanophenylalanine fluorescence-detected kinetics of hIAPP-Y37FC≡N amyloid formation in presence and absence of rifampicin; type: biochemical; settings: no rifampicin, 32 μM peptide
T1 construct: hIAPP is 37 residues in length, contains a disulfide bond linking residues 2 and 7 and has an amidated C-terminus; made in house; host or cells: chemical synthesis (Fmoc solid phase; Fmoc-4-cyanoPhe from NovaBiochem)
T1 sequence (P10997 with tags, fused parts or gaps): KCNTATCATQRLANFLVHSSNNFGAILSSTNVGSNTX
Experimental: Thioflavin-T Fluorescence. All fluorescence experiments were performed with a Jobin Yvon Horiba fluorescence spectrophotometer or with an Applied Phototechnology Fluorescence Spectrophotometer. An excitation wavelength of 450 nm and emission wavelength of 485 nm was used for the thioflavin-T studies. The excitation and emission slits were set at 5 nm. A 1.0 cm cuvette was used and each point was averaged for 1 minute. All solutions for these studies were prepared by diluting filtered stock solution (0.45 μm filter) into a Tris-HCl buffer (pH 7.4) and thioflavin-T solution immediately before the measurement. The final concentration was 32 μM peptide and 25 μM thioflavin-T with or without rifampicin in 2% HFIP for all experiments. The final concentration of ascorbic acid used in antioxidant experiments was 83 μM. All solutions were stirred during the fluorescence experiments. P-cyanophenylalanine fluorescence was excited at 240 nm and detected at 296 nm, with both excitation and emission slits of 10 nm.

[3] = p-Cyanophenylalanine fluorescence kinetic assay of amyloid formation by the peptides; type: physicochemical; settings: 32 μM peptide, 20 mM Tris-HCl, 2% HFIP
Description: as §1, §2

[4] = biological target: the molecule itself; assay: cell-based or functional assay

Gly-PheC≡N-Ala-Ala
reduction of fluorescence intensity ([1]; 20 mM Tris-HCl): approximately 30%
fluorescence intensity in water vs 2% HFIP ([1]; water, 2% HFIP, very similar in 100% HFIP): the same

KCNTATCATQRLANFLVHSSNNFGAILSSTNVGSNTFC≡N (HELM PEPTIDE1{K.C.N.T.A.T.C.A.T.Q.R.L.A.N.F.L.V.H.S.S.N.N.F.G.A.I.L.S.S.T.N.V.G.S.N.T.[N#Cc1ccc(C[C@H](N[*:1])C(=O)[*:2])cc1].[am]}$PEPTIDE1,PEPTIDE1,2:R3-7:R3$$$V2.0; N-terminus assumed; SMILES CC[C@H](C)[C@H](NC(=O)[C@H](C)NC(=O)CNC(=O)[C@H](Cc1ccccc1)NC(=O)[C@H](CC(N)=O)NC(=O)[C@H](CC(N)=O)NC(=O)[C@H](CO)NC(=O)[C@H](CO)NC(=O)[C@H](Cc1c[nH]cn1)NC(=O)[C@@H](NC(=O)[C@H](CC(C)C)NC(=O)[C@H](Cc1ccccc1)NC(=O)[C@H](CC(N)=O)NC(=O)[C@H](C)NC(=O)[C@H](CC(C)C)NC(=O)[C@H](CCCNC(=N)N)NC(=O)[C@H](CCC(N)=O)NC(=O)[C@@H](NC(=O)[C@H](C)NC(=O)[C@@H]1CSSC[C@H](NC(=O)[C@@H](N)CCCCN)C(=O)N[C@@H](CC(N)=O)C(=O)N[C@@H]([C@@H](C)O)C(=O)N[C@@H](C)C(=O)N[C@@H]([C@@H](C)O)C(=O)N1)[C@@H](C)O)C(C)C)C(=O)N[C@@H](CC(C)C)C(=O)N[C@@H](CO)C(=O)N[C@@H](CO)C(=O)N[C@H](C(=O)N[C@@H](CC(N)=O)C(=O)N[C@H](C(=O)NCC(=O)N[C@@H](CO)C(=O)N[C@@H](CC(N)=O)C(=O)N[C@H](C(=O)N[C@@H](Cc1ccc(C#N)cc1)C(N)=O)[C@@H](C)O)C(C)C)[C@@H](C)O) [hIAPP-Y37FC≡N, human IAPP with Tyr-37 replaced with p-cyanoPhe]
time of the growth period (20 to 80% completion) by thioflavin-T fluorescence ([2]; pH 7.4): 247 ± 12 s
midpoint (t50) of amyloid formation as determined by thioflavin-T fluorescence ([2]; pH 7.4, 25° C.): 1,130±100 s
growth phase (10% to 80% completion) in absence of the drug (hIAPP-Y37FC≡N): 6 min
t50 time when rifampicin is absent (hIAPP-Y37FC≡N; 2% HFIP, 25° C., pH 7.4): 18 min
time of the growth period (20 to 80% completion) by p-cyanophenylalanine fluorescence ([3]; pH 7.4): 248 ± 12 s
midpoint (t50) of amyloid formation as determined by p-cyanophenylalanine fluorescence ([3]; pH 7.4, 25° C.): 1,100±100 s

B1: hIAPP-Y37FC≡N (peptide)
peptide: KCNTATCATQRLANFLVHSSNNFGAILSSTNVGSNTF
HELM: PEPTIDE1{K.C.N.T.A.T.C.A.T.Q.R.L.A.N.F.L.V.H.S.S.N.N.F.G.A.I.L.S.S.T.N.V.G.S.N.T.[N#Cc1ccc(C[C@H](N[*:1])C(=O)[*:2])cc1].[am]}$PEPTIDE1,PEPTIDE1,2:R3-7:R3$$$V2.0; N-terminus assumed
SMILES: CC[C@H](C)[C@H](NC(=O)[C@H](C)NC(=O)CNC(=O)[C@H](Cc1ccccc1)NC(=O)[C@H](CC(N)=O)NC(=O)[C@H](CC(N)=O)NC(=O)[C@H](CO)NC(=O)[C@H](CO)NC(=O)[C@H](Cc1c[nH]cn1)NC(=O)[C@@H](NC(=O)[C@H](CC(C)C)NC(=O)[C@H](Cc1ccccc1)NC(=O)[C@H](CC(N)=O)NC(=O)[C@H](C)NC(=O)[C@H](CC(C)C)NC(=O)[C@H](CCCNC(=N)N)NC(=O)[C@H](CCC(N)=O)NC(=O)[C@@H](NC(=O)[C@H](C)NC(=O)[C@@H]1CSSC[C@H](NC(=O)[C@@H](N)CCCCN)C(=O)N[C@@H](CC(N)=O)C(=O)N[C@@H]([C@@H](C)O)C(=O)N[C@@H](C)C(=O)N[C@@H]([C@@H](C)O)C(=O)N1)[C@@H](C)O)C(C)C)C(=O)N[C@@H](CC(C)C)C(=O)N[C@@H](CO)C(=O)N[C@@H](CO)C(=O)N[C@H](C(=O)N[C@@H](CC(N)=O)C(=O)N[C@H](C(=O)NCC(=O)N[C@@H](CO)C(=O)N[C@@H](CC(N)=O)C(=O)N[C@H](C(=O)N[C@@H](Cc1ccc(C#N)cc1)C(N)=O)[C@@H](C)O)C(C)C)[C@@H](C)O
midpoint (t50) of amyloid formation, p-cyanophenylalanine fluorescence [4]: 1100 s
midpoint (t50) of amyloid formation, thioflavin-T fluorescence [4]: 1130 s

B2: hIAPP-F23FC≡N (peptide)
peptide: KCNTATCATQRLANFLVHSSNNFGAILSSTNVGSNTY
HELM: PEPTIDE1{K.C.N.T.A.T.C.A.T.Q.R.L.A.N.F.L.V.H.S.S.N.N.[N#Cc1ccc(C[C@H](N[*:1])C(=O)[*:2])cc1].G.A.I.L.S.S.T.N.V.G.S.N.T.Y.[am]}$PEPTIDE1,PEPTIDE1,2:R3-7:R3$$$V2.0; N-terminus assumed
SMILES: CC[C@H](C)[C@H](NC(=O)[C@H](C)NC(=O)CNC(=O)[C@H](Cc1ccc(C#N)cc1)NC(=O)[C@H](CC(N)=O)NC(=O)[C@H](CC(N)=O)NC(=O)[C@H](CO)NC(=O)[C@H](CO)NC(=O)[C@H](Cc1c[nH]cn1)NC(=O)[C@@H](NC(=O)[C@H](CC(C)C)NC(=O)[C@H](Cc1ccccc1)NC(=O)[C@H](CC(N)=O)NC(=O)[C@H](C)NC(=O)[C@H](CC(C)C)NC(=O)[C@H](CCCNC(=N)N)NC(=O)[C@H](CCC(N)=O)NC(=O)[C@@H](NC(=O)[C@H](C)NC(=O)[C@@H]1CSSC[C@H](NC(=O)[C@@H](N)CCCCN)C(=O)N[C@@H](CC(N)=O)C(=O)N[C@@H]([C@@H](C)O)C(=O)N[C@@H](C)C(=O)N[C@@H]([C@@H](C)O)C(=O)N1)[C@@H](C)O)C(C)C)C(=O)N[C@@H](CC(C)C)C(=O)N[C@@H](CO)C(=O)N[C@@H](CO)C(=O)N[C@H](C(=O)N[C@@H](CC(N)=O)C(=O)N[C@H](C(=O)NCC(=O)N[C@@H](CO)C(=O)N[C@@H](CC(N)=O)C(=O)N[C@H](C(=O)N[C@@H](Cc1ccc(O)cc1)C(N)=O)[C@@H](C)O)C(C)C)[C@@H](C)O
midpoint (t50) of amyloid formation, p-cyanophenylalanine fluorescence [4]: 982 s
midpoint (t50) of amyloid formation, thioflavin-T fluorescence [4]: 972 s

B3: hIAPP-F15FC≡N (peptide)
peptide: KCNTATCATQRLANFLVHSSNNFGAILSSTNVGSNTY
HELM: PEPTIDE1{K.C.N.T.A.T.C.A.T.Q.R.L.A.N.[N#Cc1ccc(C[C@H](N[*:1])C(=O)[*:2])cc1].L.V.H.S.S.N.N.F.G.A.I.L.S.S.T.N.V.G.S.N.T.Y.[am]}$PEPTIDE1,PEPTIDE1,2:R3-7:R3$$$V2.0; N-terminus assumed
SMILES: CC[C@H](C)[C@H](NC(=O)[C@H](C)NC(=O)CNC(=O)[C@H](Cc1ccccc1)NC(=O)[C@H](CC(N)=O)NC(=O)[C@H](CC(N)=O)NC(=O)[C@H](CO)NC(=O)[C@H](CO)NC(=O)[C@H](Cc1c[nH]cn1)NC(=O)[C@@H](NC(=O)[C@H](CC(C)C)NC(=O)[C@H](Cc1ccc(C#N)cc1)NC(=O)[C@H](CC(N)=O)NC(=O)[C@H](C)NC(=O)[C@H](CC(C)C)NC(=O)[C@H](CCCNC(=N)N)NC(=O)[C@H](CCC(N)=O)NC(=O)[C@@H](NC(=O)[C@H](C)NC(=O)[C@@H]1CSSC[C@H](NC(=O)[C@@H](N)CCCCN)C(=O)N[C@@H](CC(N)=O)C(=O)N[C@@H]([C@@H](C)O)C(=O)N[C@@H](C)C(=O)N[C@@H]([C@@H](C)O)C(=O)N1)[C@@H](C)O)C(C)C)C(=O)N[C@@H](CC(C)C)C(=O)N[C@@H](CO)C(=O)N[C@@H](CO)C(=O)N[C@H](C(=O)N[C@@H](CC(N)=O)C(=O)N[C@H](C(=O)NCC(=O)N[C@@H](CO)C(=O)N[C@@H](CC(N)=O)C(=O)N[C@H](C(=O)N[C@@H](Cc1ccc(O)cc1)C(N)=O)[C@@H](C)O)C(C)C)[C@@H](C)O
midpoint (t50) of amyloid formation, p-cyanophenylalanine fluorescence [4]: 936 s
midpoint (t50) of amyloid formation, thioflavin-T fluorescence [4]: 913 s
